Reference: the supplement of paper PMC11246515
± gives the standard deviation of the averaged measurements.

Assay: total protein half-life in vivo (active degradation + dilution); higher = more stable protein
[1] = E. coli NCM3722 delta-clpP delta-lon delta-hslV, growth: N-lim chemostat, doubling time 6 h
[2] = E. coli NCM3722 delta-clpP, growth: N-lim chemostat, doubling time 6 h
[3] = E. coli NCM3722 delta-hslV, growth: N-lim chemostat, doubling time 6 h
[4] = E. coli NCM3722 delta-lon, growth: N-lim chemostat, doubling time 6 h
[5] = E. coli NCM3722 delta-smpB, growth: N-lim chemostat, doubling time 6 h
[6] = wild type E. coli NCM3722, growth: C-lim chemostat, doubling time 3 h
[7] = wild type E. coli NCM3722, growth: C-lim chemostat, doubling time 6 h
[8] = wild type E. coli NCM3722, growth: C-lim chemostat, doubling time 12 h
[9] = wild type E. coli NCM3722, growth: N-lim chemostat, doubling time 6 h
[10] = wild type E. coli NCM3722, growth: N-lim chemostat, doubling time 12 h
[11] = wild type E. coli NCM3722, growth: P-lim chemostat, doubling time 6 h
[12] = wild type E. coli NCM3722, growth: P-lim chemostat, doubling time 12 h

| Sequence | total protein half-life in vivo [1] | total protein half-life in vivo [2] | total protein half-life in vivo [3] | total protein half-life in vivo [4] | total protein half-life in vivo [5] | total protein half-life in vivo [6] | total protein half-life in vivo [7] | total protein half-life in vivo [8] | total protein half-life in vivo [9] | total protein half-life in vivo [10] | total protein half-life in vivo [11] | total protein half-life in vivo [12] |
| --- | --- | --- | --- | --- | --- | --- | --- | --- | --- | --- | --- | --- |
| MIKKASLLTACSVTAFSAWAQDTSPDTLVVTANRFEQPRSTVLAPTTVVTRQDIDRWQSTSVNDVLRRLPGVDITQNGGSGQLSSIFIRGTNASHVLVLIDGVRLNLAGVSGSADLSQFPIALVQRVEYIRGPRSAVYGSDAIGGVVNIITTRDEPGTEISAGWGSNSYQNYDVSTQQQLGDKTRVTLLGDYAHTHGYDVVAYGNTGTQAQTDNDGFLSKTLYGALEHNFTDAWSGFVRGYGYDNRTNYDAYYSPGSPLLDTRKLYSQSWDAGLRYNGELIKSQLITSYSHSKDYNYDPHYGRYDSSATLDEMKQYTVQWANNVIVGHGSIGAGVDWQKQTTTPGTGYVEDGYDQRNTGIYLTGLQQVGDFTFEGAARSDDNSQFGRHGTWQTSAGWEFIEGYRFIASYGTSYKAPNLGQLYGFYGNPNLDPEKSKQWEGAFEGLTAGVNWRISGYRNDVSDLIDYDDHTLKYYNEGKARIKGVEATANFDTGPLTHTVSYDYVDARNAITDTPLLRRAKQQVKYQLDWQLYDFDWGITYQYLGTRYDKDYSSYPYQTVKMGGVSLWDLAVAYPVTSHLTVRGKIANLFDKDYETVYGYQTAGREYTLSGSYTF | 6.44 ± 0.73 h | 6.76 ± 0.089 h | 6.84 ± 0.059 h | 6.49 ± 0.47 h | 6.07 ± 0.27 h | 3.26 ± 0.15 h | 6.12 ± 0.2 h | 12.3 ± 0.2 h | 6.29 ± 0.28 h | 13.5 ± 1.7 h | 6.23 ± 0.18 h | 12.8 ± 0.14 h |
| MTMKKLLIIILPVLLSGCSAFNQLVERMQTDTLEYQCDEKPLTVKLNNPRQEVSFVYDNQLLHLKQGISASGARYTDGIYVFWSKGDEATVYKRDRIVLNNCQLQNPQR | 5.8 ± 0.46 h | 6.62 ± 0.99 h | 6.27 h | 6.49 ± 0.45 h | 5.45 ± 0.23 h | 3.27 ± 0.96 h | 6.52 ± 1.3 h | 13.5 ± 0.37 h |  | 14.4 ± 0.55 h | 6.32 ± 0.75 h | 13.8 ± 1.6 h |
| MSKNERMVGISRRTLVKSTAIGSLALAAGGFSLPFTLRNAAAAVQQAREKVVWGACSVNCGSRCALRLHVKDNEVTWVETDNTGSDEYGNHQVRACLRGRSIRRRINHPDRLNYPMKRVGKRGEGKFERISWDEALDTIASSLKKTVEQYGNEAVYIQYSSGIVGGNMTRSSPSASAVKRLMNCYGGSLNQYGSYSTAQISCAMPYTYGSNDGNSTTDIENSKLVVMFGNNPAETRMSGGGITYLLEKAREKSNAKMIVIDPRYTDTAAGREDEWLPIRPGTDAALVAGIAWVLINENLVDQPFLDKYCVGYDEKTLPADAPKNGHYKAYILGEGDDKTAKTPQWASQITGIPEDRIIKLAREIGTAKPAYICQGWGPQRQANGELTARAIAMLPILTGNVGISGGNSGARESTYTITIERLPVLDNPVKTSISCFSWTDAIDHGPQMTAIRDGVRGKDKLDVPIKFIWNYAGNTLVNQHSDINKTHEILQDESKCEMIVVIENFMTSSAKYADILLPDLMTVEQEDIIPNDYAGNMGYLIFLQPVTSEKFERKPIYWILSEVAKRLGPDVYQKFTEGRTQEQWLQHLYAKMLAKDPALPSYDELKKMGIYKRKDPNGHFVAYKAFRDDPEANPLKTPSGKIEIYSSRLAEIARTWELEKDEVISPLPVYASTFEGWNSPERRTFPLQLFGFHYKSRTHSTYGNIDLLKAACRQEVWINPIDAQKRGIANGDMVRVFNHRGEVRLPAKVTPRILPGVSAMGQGAWHEANMSGDKIDHGGCVNTLTTLRPSPLAKGNPQHTNLVEIEKI | 5.78 h |  |  |  |  |  |  |  |  |  |  |  |
| MALAMKVISQVEAQRKILEEAVSTALELASGKSDGAEVAVSKTTGISVSTRYGEVENVEFNSDGALGITVYHQNRKGSASSTDLSPQAIARTVQAALDIARYTSPDPCAGVADKELLAFDAPDLDLFHPAEVSPDEAIELAARAEQAALQADKRITNTEGGSFNSHYGVKVFGNSHGMLQGYCSTRHSLSSCVIAEENGDMERDYAYTIGRAMSDLQTPEWVGADCARRTLSRLSPRKLSTMKAPVIFANEVATGLFGHLVGAIAGGSVYRKSTFLLDSLGKQILPDWLTIEEHPHLLKGLASTPFDSEGVRTERRDIIKDGILTQWLLTSYSARKLGLKSTGHAGGIHNWRIAGQGLSFEQMLKEMGTGLVVTELMGQGVSAITGDYSRGAAGFWVENGEIQYPVSEITIAGNLKDMWRNIVTVGNDIETRSNIQCGSVLLPEMKIAGQ [P0AFK0] | 4.58 ± 0.36 h | 4.28 ± 0.05 h | 4.07 ± 0.065 h | 4.34 ± 0.1 h | 4.12 ± 0.032 h | 3.39 ± 0.57 h | 5.59 ± 0.52 h | 9.13 ± 0.67 h | 4.27 ± 0.28 h | 6.45 ± 0.34 h | 5.5 ± 0.28 h | 10.09 ± 0.033 h |
| MSALNSLPLPVVRLLAFFHEELSERRPGRVPQTVQLWVGCLLVILISMTFEIPFVALSLAVLFYGIQSNAFYTKFVAILFVVATVLEIGSLFLIYKWSYGEPLIRLIIAGPILMGCMFLMRTHRLGLVFFAVAIVAIYGQTFPAMLDYPEVVVRLTLWCIVVGLYPTLLMTLIGVLWFPSRAISQMHQALNDRLDDAISHLTDSLAPLPETRIEREALALQKLNVFCLADDANWRTQNAWWQSCVATVTYIYSTLNRYDPTSFADSQAIIEFRQKLASEINKLQHAVAEGQCWQSDWRISESEAMAARECNLENICQTLLQLGQMDPNTPPTPAAKPPSMAADAFTNPDYMRYAVKTLLACLICYTFYSGVDWEGIHTCMLTCVIVANPNVGSSYQKMVLRFGGAFCGAILALLFTLLVMPWLDNIVELLFVLAPIFLLGAWIATSSERSSYIGTQMVVTFALATLENVFGPVYDLVEIRDRALGIIIGTVVSAVIYTFVWPESEARTLPQKLAGTLGMLSKVMRIPRQQEVTALRTYLQIRIGLHAAFNACEEMCQRVALERQLDSEERALLIERSQTVIRQGRDLLHAWDATWNSAQALDNALQPDRAGQFADALEKYAAGLATALSRSPQITLEETPASQAILPTLLKQEQHVCQLFARLPDWTAPALTPATEQAQGATQ | 5.28 h | > 8 h |  |  |  | 0.524 h |  |  |  |  |  |  |
| MNGTIYQRIEDNAHFRELVEKRQRFATILSIIMLAVYIGFILLIAFAPGWLGTPLNPNTSVTRGIPIGVGVIVISFVLTGIYIWRANGEFDRLNNEVLHEVQAS [P0AF54] |  |  |  |  |  |  | 5.84 ± 0.1 h | 8.72 ± 0.83 h |  |  |  |  |
| MQKAQRIIKTYRRNRMIVCTICALVTLASTLSVRFISQRNLNQQRVVQFANHAVEELDKVLLPLQAGSEVLLPLIGLPCSVAHLPLRKQAAKLQTVRSIGLVQDGTLYCSSIFGYRNVPVVDILAELPAPQPLLRLTIDRALIKGSPVLIQWTPAAGSSNAGVMEMINIDLLTAMLLEPQLPQISSASLTVDKRHLLYGNGLVDSLPQPEDNENYQVSSQRFPFTINVNGPGATALAWHYLPTQLPLAVLLSLLVGYIAWLATAYRMSFSREINLGLAQHEFELFCQPLLNARSQQCIGVEILLRWNNPRQGWISPDVFIPIAEEHHLIVPLTRYVMAETIRQRHVFPMSSQFHVGINVAPSHFRRGVLIKDLNQYWFSAHPIQQLILEITERDALLDVDYRIARELHRKNVKLAIDDFGTGNSSFSWLETLRPDVLKIDKSFTAAIGSDAVNSTVTDIIIALGQRLNIELVAEGVETQEQAKYLRRHGVHILQGYLYAQPMPLRDFPKWLAGSQPPPARHNGHITPIMPLR | 4.94 h | 2.57 h |  |  |  |  |  |  |  |  |  |  |
| MQYNPLGKTDLRVSRLCLGCMTFGEPDRGNHAWTLPEESSRPIIKRALEGGINFFDTANSYSDGSSEEIVGRALRDFARREDVVVATKVFHRVGDLPEGLSRAQILRSIDDSLRRLGMDYVDILQIHRWDYNTPIEETLEALNDVVKAGKARYIGASSMHASQFAQALELQKQHGWAQFVSMQDHYNLIYREEEREMLPLCYQEGVAVIPWSPLARGRLTRPWGETTARLVSDEVGKNLYKESDENDAQIAERLTGVSEELGATRAQVALAWLLSKPGIAAPIIGTSREEQLDELLNAVDITLKPEQIAELETPYKPHPVVGFK | 4.533 ± 0.045 h | 4.47 ± 0.65 h | 4.55 ± 0.91 h | 5 ± 0.2 h | 3.79 ± 0.081 h | 2.81 ± 0.13 h | 5.04 ± 0.076 h | 9.04 ± 0.38 h | 4.21 ± 0.2 h | 6.51 ± 0.4 h | 4.28 ± 0.23 h | 8.83 ± 0.12 h |
| MALIVEFICELPNGVHARPASHVETLCNTFSSQIEWHNLRTDRKGNAKSALALIGTDTLAGDNCQLLISGADEQEAHQRLSQWLRDEFPHCDAPLAEVKSDELEPLPVSLTNLNPQIIRARTVCSGSAGGILTPISSLDLNALGNLPAAKGVDAEQSALENGLTLVLKNIEFRLLDSDGATSAILEAHRSLAGDTSLREHLLAGVSAGLSCAEAIVASANHFCEEFSRSSSSYLQERALDVRDVCFQLLQQIYGEQRFPAPGKLTQPAICMADELTPSQFLELDKNHLKGLLLKSGGTTSHTVILARSFNIPTLVGVDIDALTPWQQQTIYIDGNAGAIVVEPGEAVARYYQQEARVQDALREQQRVWLTQQARTADGIRIEIAANIAHSVEAQAAFGNGAEGVGLFRTEMLYMDRTSAPGESELYNIFCQALESANGRSIIVRTMDIGGDKPVDYLNIPAEANPFLGYRAVRIYEEYASLFTTQLRSILRASAHGSLKIMIPMISSMEEILWVKEKLAEAKQQLRNEHIPFDEKIQLGIMLEVPSVMFIIDQCCEEIDFFSIGSNDLTQYLLAVDRDNAKVTRHYNSLNPAFLRALDYAVQAVHRQGKWIGLCGELGAKGSVLPLLVGLGLDELSMSAPSIPAAKARMAQLDSRECRKLLNQAMACRTSLEVEHLLAQFRMTQQDAPLVTAECITLESDWRSKEEVLKGMTDNLLLAGRCRYPRKLEADLWAREAVFSTGLGFSFAIPHSKSEHIEQSTISVARLQAPVRWGDDEAQFIIMLTLNKHAAGDQHMRIFSRLARRIMHEEFRNALVNAASADAIASLLQHELEL |  |  |  |  |  | 2.7 h |  | 7.46 h |  |  |  |  |
| MIKSKIVLLSALVSCALISGCKEENKTNVSIEFMHSSVEQERQAVISKLIARFEKENPGITVKQVPVEEDAYNTKVITLSRSGSLPEVIETSHDYAKVMDKEQLIDRKAVATVISNVGEGAFYDGVLRIVRTEDGSAWTGVPVSAWIGGIWYRKDVLAKAGLEEPKNWQQLLDVAQKLNDPANKKYGIALPTAESVLTEQSFSQFALSNQANVFNAEGKITLDTPEMMQALTYYRDLTANTMPGSNDIMEVKDAFMNGTAPMAIYSTYILPAVIKEGDPKNVGFVVPTEKNSAVYGMLTSLTITAGQKTEETEAAEKFVTFMEQADNIADWVMMSPGAALPVNKAVVTTATWKDNDVIKALGELPNQLIGELPNIQVFGAVGDKNFTRMGDVTGSGVVSSMVHNVTVGKADLSTTLQASQKKLDELIEQH | 5.01 h |  |  |  |  | 3 h | 4.35 ± 1.8 h | 13.3 h |  |  |  |  |
| MKKWSRHLLAAGALALGMSAAHADDNNTLYFYNWTEYVPPGLLEQFTKETGIKVIYSTYESNETMYAKLKTYKDGAYDLVVPSTYYVDKMRKEGMIQKIDKSKLTNFSNLDPDMLNKPFDPNNDYSIPYIWGATAIGVNGDAVDPKSVTSWADLWKPEYKGSLLLTDDAREVFQMALRKLGYSGNTTDPKEIEAAYNELKKLMPNVAAFNSDNPANPYMEGEVNLGMIWNGSAFVARQAGTPIDVVWPKEGGIFWMDSLAIPANAKNKEGALKLINFLLRPDVAKQVAETIGYPTPNLAARKLLSPEVANDKTLYPDAETIKNGEWQNDVGAASSIYEEYYQKLKAGR [P0AFK9] |  | 5.36 ± 0.48 h | 6.46 ± 0.61 h | 6.271 ± 0.061 h | 5.94 ± 0.35 h | 3.44 ± 0.58 h | 6.44 ± 0.57 h | 13.6 ± 0.72 h | 6.07 ± 0.22 h | 11.99 ± 0.032 h | 5.59 ± 0.35 h | 12.5 ± 0.19 h |
